Experimental data as given in patent US20150166643A1 (Alexion, published 2015).

What was measured:
[1] = target: T1, human factor B (purified, Complement Technology A135) (human, UniProt P00751 26-764); test: cell-based or functional assay
[2] = target: T1, human factor B (purified, Complement …); test: BLI (Octet), binding to factor B (summary table)
Description: (§1) Binding kinetics of TA106 and TA106 S33A Fab (CLS016) to Factor B were analyzed using a FortéBio® Octet® biosensor (FortéBio, Inc.) in a similar protocol as described previously. In one exemplary experiment, Factor B (Complement Technology) was biotinylated at a 1:10 ratio and coupled to a streptavidin biosensor at a concentration of 5 μg/mL for a loading time of 600 seconds. Biosensors were briefly dipped in 1×KB as a wash for 30 seconds. Associations with a titration series of Fab with a concentration range from 100 to 3 nM (diluted in 1×KB) were carried out for 600 seconds. Fabs were dissociated from the biosensor by immersing the biosensor in 1×KB during the 600 second dissociation phase. As depicted in FIGS. 19 and 20, both TA106 Fab and TA106-derivative S33A Fab (CLS016) bound to Factor B at various concentrations, resulting in nearly identical association and dissociation profiles. Kinetic assessments using partial local fit parameters yielded identical values for KD/kₐ/Kd at each concentration tested.

[3] = target: T1, human factor B (purified, Complement …); test: ELISA, plate coated with human factor B, anti-human kappa light chain HRP
Description: The binding activities of these mAbs towards factor B were analyzed by ELISA using standard protocols. In one exemplary experiment, MaxiSorp™ ELISA plates (Nunc, #439454, Rochester, N.Y.) were coated with 50 μL of human factor B (Complement Technology, A135, 1 mg/mL, lot 14c) at a concentration of 0.5 μg/mL in carbonate coating buffer (0.795 g carbonate+1.46 g bicarbonate+1 mL 1% NaN₃ (final concentration of 0.002%) in 500 mL water, pH 9.6 (lot 02 August 10)). Plates then were covered with plate sealers and incubated at 37±1° C. for one hour. Following coating, wells were emptied of reagent and washed in a BioTek® ELx405 plate washer (BioTek, Winooski, Vt.) for three times with 200 μL wash solution (PBS/0.05% Tween 20) per well. Following washes, wells were blocked with 100 μL of BSA (1% w/v) and incubated for one hour at room temperature. Wells were then washed again as described above. Fifty microliter samples (i.e., TA106 Fab, CLS011 mAb, CLS012 mAb, and CLS013 mAb) were then added to wells and incubated for one hour at room temperature. […] The plate was read on a Benchmark™ microplate reader (Bio-Rad Laboratories, Hercules, Calif.) at 450 nm. Standard curves were plotted with 4 parameter fit with DeltaSoft® 1.6 software, and sample concentrations were determined from the standard curves.

[4] = target: T1, human factor B (purified, Complement …); test: BLI (Octet), biotinylated factor B on streptavidin biosensor, Fab at 25 nM
Description: as §1

[5] = target: T1, human factor B (purified, Complement …); test: BLI (Octet), biotinylated factor B on streptavidin biosensor, Fab at 50 nM
Description: as §1

[6] = target: T1, human factor B (purified, Complement …); test: BLI (Octet), biotinylated factor B on streptavidin biosensor, Fab at 100 nM
Description: as §1

[7] = target: T1, human factor B (purified, Complement …); test: BLI (Octet), biotinylated factor B on streptavidin biosensor, Fab at 3.13 nM
Description: as §1

[8] = target: T1, human factor B (purified, Complement …); test: BLI (Octet), biotinylated factor B on streptavidin biosensor, Fab at 6.25 nM
Description: as §1

[9] = target: T1, human factor B (purified, Complement …); test: SPR (Biacore), TA106 Fab captured on anti-Fab surface, soluble factor B flowed; Chi2 0.113
[10] = target: T1, human factor B (purified, Complement …); test: SPR (Biacore), TA106 Fab captured on anti-Fab surface, soluble factor B 3.1-100 nM flowed; Chi2 0.206
From the text: Binding kinetics of TA106 Fab and variant S33A Fab (CLS016) were further characterized using Surface Plasmon Resonance (SPR) technology. In one exemplary experiment, both Fabs were captured on chips of a Biacore 3000 analyzer and samples of human factor B of different concentrations were flowed as the antigen over the surface to model soluble human factor B binding, using protocols recommended by the manufacturer and described previously in the instant disclosure. […] In another exemplary experiment, the affinities of both Fabs were also measured by reversing the orientation of the previous experiment. Specifically, human factor B was directly coupled to one flow cell of a CM5 chip. The second flow cell was used as a blank reference with no coupled ligand. CLS016 or TA106 Fab was then flowed on both flow cells. Concentrations between 0.19 to 25 nM were run with duplicates. The surface was regenerated between each cycle.

T1 sequence (P00751 26-764): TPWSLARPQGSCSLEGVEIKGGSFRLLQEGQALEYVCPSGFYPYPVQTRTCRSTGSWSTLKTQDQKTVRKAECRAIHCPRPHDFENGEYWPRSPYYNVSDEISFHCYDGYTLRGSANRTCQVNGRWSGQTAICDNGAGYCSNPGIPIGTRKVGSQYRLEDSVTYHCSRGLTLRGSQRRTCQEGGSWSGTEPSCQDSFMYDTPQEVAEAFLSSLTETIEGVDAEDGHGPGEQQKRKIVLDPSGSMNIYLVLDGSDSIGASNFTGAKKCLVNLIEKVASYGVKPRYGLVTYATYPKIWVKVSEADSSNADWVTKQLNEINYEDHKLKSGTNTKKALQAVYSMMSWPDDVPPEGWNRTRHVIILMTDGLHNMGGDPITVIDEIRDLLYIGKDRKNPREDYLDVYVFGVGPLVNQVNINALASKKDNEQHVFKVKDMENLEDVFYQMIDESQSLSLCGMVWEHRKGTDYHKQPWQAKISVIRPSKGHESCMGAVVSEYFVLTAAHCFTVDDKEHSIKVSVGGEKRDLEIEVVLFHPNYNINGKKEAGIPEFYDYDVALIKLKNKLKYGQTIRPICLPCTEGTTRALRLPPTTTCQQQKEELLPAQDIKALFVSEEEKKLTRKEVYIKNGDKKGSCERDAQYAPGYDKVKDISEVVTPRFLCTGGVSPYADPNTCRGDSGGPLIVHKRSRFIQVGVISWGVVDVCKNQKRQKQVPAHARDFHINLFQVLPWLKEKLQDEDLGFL

IC50 (read off the curve); lysis of rabbit red blood cells in 10% normal human serum [1]: ~80 nM | Kd [2]: 20 to 30 nM | EC50 [3]: 0.57 nM | Kd [4]: 22.4 nM | koff [4]: 0.00352 s⁻¹ | kon [4]: 157000 M⁻¹ s⁻¹ | Kd [5]: 22.7 nM | koff [5]: 0.0039 s⁻¹ | kon [5]: 172000 M⁻¹ s⁻¹ | Kd [6]: 13 nM | koff [6]: 0.00405 s⁻¹ | kon [6]: 312000 M⁻¹ s⁻¹ | Kd [7]: 32.3 nM | koff [7]: 0.00239 s⁻¹ | kon [7]: 74000 M⁻¹ s⁻¹ | Kd [8]: 41.6 nM | koff [8]: 0.00294 s⁻¹ | kon [8]: 70600 M⁻¹ s⁻¹ | koff [9]: 0.0036 s⁻¹ | kon [9]: 118000 M⁻¹ s⁻¹ | koff [10]: 0.00338 s⁻¹ | kon [10]: 136000 M⁻¹ s⁻¹
B1: TA106 Fab (humaneered anti-factor B Fab, expressed in E. coli) (Fab, V domains shown)
VH: QVQLVQSGAEVKKPGASVKVSCKASGYSFTDYYMTWVRQAPGQGLEWMGWINPNSGGTKYAQKFQGRVTMTRDTSISTAYMELSRLRSDDTAVYYCARGYYANSAWFAYWGQGTLVTVSS
VL: DIVMTQSPDSLAVSLGERATINCKSSQSLLNSSTSKNYLAWYQQKPGQPPKLLIYWASTRESGVPDRFSGSGSGTDFTLTISSLQAEDVAVYYCKQVYNLPWTFGQGTKLEIKR
notes: Fab made in E. coli by Xoma, not glycosylated; also called Fab TA106; TA106 wild type Fab
